The assay has as its target one-twelfth protomer of the giant extracellular haemoglobin from Glossoscolex paulistus (cyanomet HbGp) (Glossoscolex paulistus). Kind of assay: crystal structure; cyanomet-HbGp, whole particle; crystals from 1.2 M sodium citrate, 2.5 mM CaCl2, 50 mM Tris-HCl pH 7.5; space group I222, data to 3.2 Å; molecular replacement with the one-twelfth protomer of L. terrestris erythrocruorin (2gtl); preliminary, not refined.

“one-twelfth protomer of the giant extracellular haemoglobin from Glossoscolex paulistus (cyanomet HbGp) (complex)” showed a stoichiometry N (protomers per full particle) of 12.

Source of the values: article PMC3004248.
